Measurements published in US8461305B2, “L-fucose α1→6 specific lectin” (J-Oil Mills, Inc., priority 2008, dated 2013).

Assay: frontal affinity chromatography (FAC), association constant to PA sugar chains without L-fucose
Type: binding
Conditions: 25 degrees C.
Procedure, shortened: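 Lectin coupled via primary amines to NHS-activated sepharose in a miniature column, run in TBS (pH 7.4) at 0.125 ml/min and 25 degrees C. PA sugar chains (3.75 nM or 7.5 nM) applied in excess, with elution monitored by fluorescence (ex 310/em 380 nm). Ka calculated from front-end delay (V−Vo) versus PA rhamnose and effective ligand amount (Bt).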

[1] = Sugar chain No. 728 (as listed in Table 7)

B1: Pisum sativum agglutinin (protein)
chain: TETTSFLITKFSPDQQNLIFQGDGYTTKEKLTLTKAVKNTVGRALYSSPIHIWDRETGNVANFVTSFTFVINAPNSYNVADGFTFFIAPVDTKPQTGGGYLGVFNSAEYDKTTQTVAVEFDTFYNAAWDPSNRDRHIGIDVNSIKSVNTKSWKLQNGEEANVVIAFNAATNVLTVSLTYPNSLEEENVTSYTLSDVVSLKDVVPEWVRIGFSATTGAEYAAHEVLSWSFHSELSGTSSSKQAADA
With B1 the “association constant Ka” value (Sugar chain No. 001) was <1000 M⁻¹, the “association constant Ka” value (Sugar chain No. 002) was <1000 M⁻¹ and the “association constant Ka” value (Sugar chain No. 003) was 7800 M⁻¹. The “association constant Ka” value (Sugar chain No. 004) was <1000 M⁻¹, the “association constant Ka” value (Sugar chain No. 005) was 7400 M⁻¹ and the “association constant Ka” value (Sugar chain No. 006) was 7100 M⁻¹. The “association constant Ka” value (Sugar chain No. 007) was 7800 M⁻¹, the “association constant Ka” value (Sugar chain No. 008) was 10000 M⁻¹ and the “association constant Ka” value (Sugar chain No. 009) was 7900 M⁻¹. The “association constant Ka” value (Sugar chain No. 010) was <1000 M⁻¹, the “association constant Ka” value (Sugar chain No. 011) was <1000 M⁻¹ and the “association constant Ka” value (Sugar chain No. 012) was 17000 M⁻¹. The “association constant Ka” value (Sugar chain No. 013) was <1000 M⁻¹, the “association constant Ka” value (Sugar chain No. 014) was 8600 M⁻¹ and the “association constant Ka” value (Sugar chain No. 101) was <1000 M⁻¹. The “association constant Ka” value (Sugar chain No. 103) was <1000 M⁻¹, the “association constant Ka” value (Sugar chain No. 104) was <1000 M⁻¹ and the “association constant Ka” value (Sugar chain No. 105) was <1000 M⁻¹. The “association constant Ka” value (Sugar chain No. 107) was <1000 M⁻¹, the “association constant Ka” value (Sugar chain No. 108) was <1000 M⁻¹ and the “association constant Ka” value (Sugar chain No. 301) was <1000 M⁻¹. For the same molecule, the “association constant Ka” value (Sugar chain No. 304) was <1000 M⁻¹, the “association constant Ka” value (Sugar chain No. 305) was <1000 M⁻¹ and the “association constant Ka” value (Sugar chain No. 307) was 2400 M⁻¹. For the same molecule, the “association constant Ka” value (Sugar chain No. 308) was <1000 M⁻¹, the “association constant Ka” value (Sugar chain No. 313) was <1000 M⁻¹ and the “association constant Ka” value (Sugar chain No. 314) was <1000 M⁻¹. For the same molecule, the “association constant Ka” value (Sugar chain No. 323) was <1000 M⁻¹, the “association constant Ka” value (Sugar chain No. 501) was <1000 M⁻¹ and the “association constant Ka” value (Sugar chain No. 502) was <1000 M⁻¹. The “association constant Ka” value (Sugar chain No. 503) was <1000 M⁻¹, the “association constant Ka” value (Sugar chain No. 504) was <1000 M⁻¹ and the “association constant Ka” value (Sugar chain No. 701) was <1000 M⁻¹. The “association constant Ka” value (Sugar chain No. 702) was <1000 M⁻¹, the “association constant Ka” value (Sugar chain No. 703) was <1000 M⁻¹ and the “association constant Ka” value (Sugar chain No. 704) was <1000 M⁻¹. For the same molecule, the “association constant Ka” value (Sugar chain No. 705) was <1000 M⁻¹, the “association constant Ka” value (Sugar chain No. 706) was <1000 M⁻¹ and the “association constant Ka” value (Sugar chain No. 707) was <1000 M⁻¹. The “association constant Ka” value (Sugar chain No. 708) was <1000 M⁻¹, the “association constant Ka” value (Sugar chain No. 709) was <1000 M⁻¹ and the “association constant Ka” value (Sugar chain No. 710) was <1000 M⁻¹. The “association constant Ka” value (Sugar chain No. 711) was <1000 M⁻¹, the “association constant Ka” value (Sugar chain No. 712) was <1000 M⁻¹ and the “association constant Ka” value (Sugar chain No. 713) was <1000 M⁻¹. The “association constant Ka” value (Sugar chain No. 715) was <1000 M⁻¹, the “association constant Ka” value (Sugar chain No. 716) was <1000 M⁻¹ and the “association constant Ka” value (Sugar chain No. 717) was <1000 M⁻¹. The “association constant Ka” value (Sugar chain No. 724) was <1000 M⁻¹, the “association constant Ka” value (Sugar chain No. 725) was <1000 M⁻¹ and the “association constant Ka” value [1] was <1000 M⁻¹. The “association constant Ka” value (Sugar chain No. 732) was <1000 M⁻¹, the “association constant Ka” value (Sugar chain No. 733) was <1000 M⁻¹ and the “association constant Ka” value (Sugar chain No. 734) was <1000 M⁻¹. For the same molecule, the “association constant Ka” value (Sugar chain No. 735) was <1000 M⁻¹, the “association constant Ka” value (Sugar chain No. 736) was <1000 M⁻¹ and the “association constant Ka” value (Sugar chain No. 737) was <1000 M⁻¹. The “association constant Ka” value (Sugar chain No. 738) was <1000 M⁻¹, the “association constant Ka” value (Sugar chain No. 901) was <1000 M⁻¹ and the “association constant Ka” value (Sugar chain No. 902) was <1000 M⁻¹. The “association constant Ka” value (Sugar chain No. 903) was <1000 M⁻¹, the “association constant Ka” value (Sugar chain No. 905) was <1000 M⁻¹ and the “association constant Ka” value (Sugar chain No. 906) was <1000 M⁻¹. For the same molecule, the “association constant Ka” value (Sugar chain No. 907) was <1000 M⁻¹.

B2: Lens culinaris agglutinin (protein)
chain 1: TETTSFSITKFSPDQKNLIFQGDGYTTKGKLTLTKAVKSTVGRALYSTPIHIWDRDTGNVANFVTSFTFVIDAPSSYNVADEFTFFIAPVDTKPQTGGGYLGVFNSKEYDKTSQTVAVEFDTFYNAAWDPSNKERHIGIDVNSIKSVNTKSWNLQNGERANVVIAFNAATNVLTVTLTYP
chain 2: VTSYTLNEVVPLKDVVPEWVRIGFSATTGAEFAAHEVHSWSFHSELGGTSSS
In the case of B2, the “association constant Ka” value (Sugar chain No. 001) is reported as <1000 M⁻¹, the “association constant Ka” value (Sugar chain No. 002) is reported as <1000 M⁻¹ and the “association constant Ka” value (Sugar chain No. 003) is reported as 7200 M⁻¹. For the same molecule, the “association constant Ka” value (Sugar chain No. 004) was <1000 M⁻¹, the “association constant Ka” value (Sugar chain No. 005) was <1000 M⁻¹ and the “association constant Ka” value (Sugar chain No. 006) was 14000 M⁻¹. The “association constant Ka” value (Sugar chain No. 007) was <1000 M⁻¹, the “association constant Ka” value (Sugar chain No. 008) was 18000 M⁻¹ and the “association constant Ka” value (Sugar chain No. 009) was 18000 M⁻¹. For the same molecule, the “association constant Ka” value (Sugar chain No. 010) was 13000 M⁻¹, the “association constant Ka” value (Sugar chain No. 011) was 14000 M⁻¹ and the “association constant Ka” value (Sugar chain No. 012) was 25000 M⁻¹. For the same molecule, the “association constant Ka” value (Sugar chain No. 013) was 17000 M⁻¹, the “association constant Ka” value (Sugar chain No. 014) was 17000 M⁻¹ and the “association constant Ka” value (Sugar chain No. 101) was <1000 M⁻¹. The “association constant Ka” value (Sugar chain No. 103) was <1000 M⁻¹, the “association constant Ka” value (Sugar chain No. 104) was <1000 M⁻¹ and the “association constant Ka” value (Sugar chain No. 105) was <1000 M⁻¹. For the same molecule, the “association constant Ka” value (Sugar chain No. 107) was <1000 M⁻¹, the “association constant Ka” value (Sugar chain No. 108) was <1000 M⁻¹ and the “association constant Ka” value (Sugar chain No. 301) was <1000 M⁻¹. The “association constant Ka” value (Sugar chain No. 304) was <1000 M⁻¹, the “association constant Ka” value (Sugar chain No. 305) was <1000 M⁻¹ and the “association constant Ka” value (Sugar chain No. 307) was <1000 M⁻¹. The “association constant Ka” value (Sugar chain No. 308) was <1000 M⁻¹, the “association constant Ka” value (Sugar chain No. 313) was <1000 M⁻¹ and the “association constant Ka” value (Sugar chain No. 314) was <1000 M⁻¹. For the same molecule, the “association constant Ka” value (Sugar chain No. 323) was <1000 M⁻¹, the “association constant Ka” value (Sugar chain No. 501) was <1000 M⁻¹ and the “association constant Ka” value (Sugar chain No. 502) was <1000 M⁻¹. The “association constant Ka” value (Sugar chain No. 503) was <1000 M⁻¹, the “association constant Ka” value (Sugar chain No. 504) was <1000 M⁻¹ and the “association constant Ka” value (Sugar chain No. 701) was <1000 M⁻¹. For the same molecule, the “association constant Ka” value (Sugar chain No. 702) was <1000 M⁻¹, the “association constant Ka” value (Sugar chain No. 703) was <1000 M⁻¹ and the “association constant Ka” value (Sugar chain No. 704) was <1000 M⁻¹. The “association constant Ka” value (Sugar chain No. 705) was <1000 M⁻¹, the “association constant Ka” value (Sugar chain No. 706) was <1000 M⁻¹ and the “association constant Ka” value (Sugar chain No. 707) was <1000 M⁻¹. For the same molecule, the “association constant Ka” value (Sugar chain No. 708) was <1000 M⁻¹, the “association constant Ka” value (Sugar chain No. 709) was <1000 M⁻¹ and the “association constant Ka” value (Sugar chain No. 710) was <1000 M⁻¹. For the same molecule, the “association constant Ka” value (Sugar chain No. 711) was <1000 M⁻¹, the “association constant Ka” value (Sugar chain No. 712) was <1000 M⁻¹ and the “association constant Ka” value (Sugar chain No. 713) was <1000 M⁻¹. The “association constant Ka” value (Sugar chain No. 715) was <1000 M⁻¹, the “association constant Ka” value (Sugar chain No. 716) was <1000 M⁻¹ and the “association constant Ka” value (Sugar chain No. 717) was <1000 M⁻¹. For the same molecule, the “association constant Ka” value (Sugar chain No. 724) was <1000 M⁻¹, the “association constant Ka” value (Sugar chain No. 725) was <1000 M⁻¹ and the “association constant Ka” value [1] was <1000 M⁻¹. The “association constant Ka” value (Sugar chain No. 732) was <1000 M⁻¹, the “association constant Ka” value (Sugar chain No. 733) was <1000 M⁻¹ and the “association constant Ka” value (Sugar chain No. 734) was <1000 M⁻¹. The “association constant Ka” value (Sugar chain No. 735) was <1000 M⁻¹, the “association constant Ka” value (Sugar chain No. 736) was <1000 M⁻¹ and the “association constant Ka” value (Sugar chain No. 737) was <1000 M⁻¹. The “association constant Ka” value (Sugar chain No. 738) was <1000 M⁻¹, the “association constant Ka” value (Sugar chain No. 901) was <1000 M⁻¹ and the “association constant Ka” value (Sugar chain No. 902) was <1000 M⁻¹. The “association constant Ka” value (Sugar chain No. 903) was <1000 M⁻¹, the “association constant Ka” value (Sugar chain No. 905) was <1000 M⁻¹ and the “association constant Ka” value (Sugar chain No. 906) was <1000 M⁻¹. For the same molecule, the “association constant Ka” value (Sugar chain No. 907) was <1000 M⁻¹.
